Reference: WO2021212049A2

Target: recombinant SARS-CoV-2 S protein ectodomain (residues 14-1211), 2P, furin site mutated, foldon, 8XHis (SARS-CoV-2), P0DTC2
Experiment: ELISA on coated antigen, anti-human IgG-HRP
Details: remark: other sources report otherwise

B1: mAb 2H04 (antibody)
chain 1: EVQLQQSGAELVKPGASVKMSCKASGYTFTSYWITWVKQRPGQGLEWIGDIYPGSGSTKYNEKFRSEATLTVDTSSTTAYMQLSSLTSEDSAVYYCARWDFYGSRTFDYWGQGTTLTVSS
chain 2: DIVLTQSPAILSVSPGERVSFSCRASQNIGTIIHWYQQRTNGSPRLLIKYASESVSGIPSRFSGSGSGTDFTLSINSVESEDIADYYCQQSSSWPLTFGAGTKLELK
In the case of B1, the minimum positive concentration is reported as < 5 µg/mL.
